Data from paper PMC11077940.
Where two headings read alike, the source gives them in different places.

Key:
[1] = target: ATP hydrolysis-deficient DctD, DctD_(H216R), prepared as a dephosphorylated form (d-DctD_(H216R)) (Vibrio vulnificus); assay: SEC; d-DctD_(H216R) (alkaline phosphatase-treated) and d-IIA^Glc in 50 mM Tris-HCl pH 8.0, 20 mM KCl, 50 mM MgCl2, 100 mM NaCl applied to Superdex 200 Increase 10/300 GL; fractionated multimers used for the ATPase assay
[2] = target: ATP hydrolysis-deficient DctD, DctD_(H216R), prepared as a dephosphorylated form (d-DctD_(H216R)) (Vibrio vulnificus); assay: as above; remark: listed apart in the source
[3] = target: phosphorylation-deficient DctD (DctD_(D57Q)) of Vibrio vulnificus (Vibrio vulnificus); assay: SEC; GPC of mixtures of d-IIA^Glc and DctD_(D57Q) (20 µM each; also 5 µM + 20 µM and 20 µM + 5 µM); Superdex 200 Increase 10/300 GL, running buffer 50 mM Tris-HCl pH 8.0, 20 mM KCl, 50 mM MgCl2, 300 mM NaCl; fractions analysed by SDS-PAGE with densitometry against known amounts of each protein
[4] = target: phosphorylation-deficient DctD (DctD_(D57Q)) of Vibrio vulnificus (Vibrio vulnificus); assay: SEC; GPC of recombinant DctD_(D57Q) alone; Superdex 200 Increase 10/300 GL, running buffer 50 mM Tris-HCl pH 8.0, 20 mM KCl, 50 mM MgCl2, 300 mM NaCl, 0.4 mL/min; size from a regression of standard proteins

“ATP hydrolysis-deficient DctD, DctD_(H216R), prepared as a dephosphorylated form (d-DctD_(H216R)) (natural protein)” showed a stoichiometry N [1] of 12 and a stoichiometry N [2] of 2.

“dephosphorylated form of the glucose-specific enzyme IIA (d-IIA^Glc) (natural protein)” was tested, and the stoichiometry N [3] was 1 molar ratio.

For “phosphorylation-deficient DctD (DctD_(D57Q)) of Vibrio vulnificus (natural protein)”, the stoichiometry N [4] was 2.
